{
  "source": "the nanobody polyreactivity screen of Harvey et al. (2022)",
  "data": [
    {"experiment": "yeast display, Sf9 membrane polyspecificity reagent, FACS + sequencing; frameworks hold sequencing errors", "method_in_brief": "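After 36–48 hours of galactose induction, yeast (Saccharomyces cerevisiae BJ5465) displaying a synthetic nanobody library were stained at 4 °C for 1 hour with 10% biotinylated, detergent-solubilized Sf9 membrane reagent. Streptavidin microbeads enriched the stained cells before FACS sorting into low and high (top ~1%) gates on anti-HA and streptavidin fluorescence. Each clone's polyreactivity label reflects its gate of origin.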", "values": [
      {"sequence": "QVQLQESGGGLVQAGGSLRLSCAASGSISSRDAMGWYRQAPGKEREFVATIASGTTTYYADSVKGSFTISRDNAENTVYLQTNSLKPEDTAVYYCAAPTIQIYPFYYWGQGTQVTVSS", "polyreactivity (PSR sort gate)": "high polyreactivity"},
      {"sequence": "QVQLQESGGGLVQAGGSLRLSCAASGSNFDTPTMGWYRQAPGKERELVASIAYDDNTYYADSVKGRFTISRYNAKNTVYLQMNSLKPGDTAVYYCAVTDRIYYYFVYWGQGTRVTVSS", "polyreactivity (PSR sort gate)": "high polyreactivity"},
      {"sequence": "QVQLQESGGGLVQAGGSLRLSCAASGSNFDTPTMGWYRQAPGKERELVASSAYDDNTYYADSVKGRFTISRYNAKNTVYLQRNSLKPGDTAVYYCAVTDRIYYYFVYWGQGTRVTVSS", "polyreactivity (PSR sort gate)": "high polyreactivity"},
      {"sequence": "QVQLQESGGGLVQAGGSLRLSCAASGTIFTARFMGWYRQAPGKERELVATITDGGNTNHADSVKGRFTISRDNAKNTVYLQMNSLKPEDAAVYYFAAGEVDNDTLLYWGQGSQVTVSS", "polyreactivity (PSR sort gate)": "low polyreactivity"},
      {"sequence": "QVQLQESGGGLVQAGGSLRLSCAASGTIFWLWAMGRYCQAPGQDRELVASISSGGTTYHADSVKGRFTISRDKAKNPVYRQMNSVKPEDTAVYYRAAFYVATAKLGYWGQGSQVTVSS", "polyreactivity (PSR sort gate)": "low polyreactivity"},
      {"sequence": "QVQLQESGGGLVQAGGSLRLSCAASGTIFYKDDMGWYRQAPGKEREFVAGIDRGGTTNCAGSVKGRFTISRDNAKNTVYLQMISLKPEDTAVYYCAAYYPDIYPFIYRGQGTQVTVSS", "polyreactivity (PSR sort gate)": "high polyreactivity"},
      {"sequence": "QVQLQESGGGLVQAGGSLRLSCAASGTILYSLGMGWYRQAPGKRREFVASITWGTTTNYAESVKGRFTISRDNAKNTVYPQMNSLKPEDTAVYDCAAPPFGDSSYHYWGQGTQVTVSS", "polyreactivity (PSR sort gate)": "low polyreactivity"},
      {"sequence": "QVQLQESGGGLVQAGGSLRLSCAASGTISDRAGMGWYRQAPAKNAIVATIDRGTNTNYADSVKGRFTISRDNAKNTVYLQMNSLKPEDTAVYNCAAVGRYYIYLDYWGQGTQVTVSS", "polyreactivity (PSR sort gate)": "low polyreactivity"},
      {"sequence": "QVQLQESGGGLVQAGGSLRLSCAASGTISPLPAMGWYRQAPGKEREFVAGIDTGAITNYADSVKGRFTISRDNAKNTVYLQMNSLKPEDTAVYYCAVFQAAYDYYERYYTYWGQGTQVTVSS", "polyreactivity (PSR sort gate)": "low polyreactivity"},
      {"sequence": "QVQLQESGGGLVQAGGSLRLSCAASGTISPLPAMGWYRQAPGKEREFVPGIDTGAITNYADSVKGRFTISRDNAKNTVYLQMNSLKPEDTAVYYCAVFPAAYDYYERYYTYWGQGTQVTVSS", "polyreactivity (PSR sort gate)": "low polyreactivity"},
      {"sequence": "QVQLQESGGGLVQAGGSLRLSCAASGTISTDSYMGWYRQAPGKERKFVASIGYGGITYYADSVKGRSTISRDSAKNTVYLQMNSLKPEDTAVYYCAVNSYYPDHYWYWGRGTQVTVSS", "polyreactivity (PSR sort gate)": "high polyreactivity"},
      {"sequence": "QVQLQESGGGLVQAGGSLRLSCAASGTISTDSYMGWYRQAPGKESKFVATIGYGGITYYADSVKGRSTISRDSAKNTVYLQMNILKPEDTAVYYCAVNSYYPDHYWYWGRGTQVTVSS", "polyreactivity (PSR sort gate)": "high polyreactivity"},
      {"sequence": "QVQLQESGGGLVQAGGSLRLSCAASGTISVHASMGWYRQAPGKERELVAGITDGANTYYADSVKGRFTISRDNSKNTVYLQMNSLIPEDTAVYYCAAYYGTEVHFTYWGQGTQVTVSS", "polyreactivity (PSR sort gate)": "low polyreactivity"},
      {"sequence": "QVQLQESGGGLVQAGGSLRLSCAASGTITVLYKMGWFRQAPGKEREFVASINYGTRTYYADSVKGRFTVSRDSAKNTVYLQMNSLKPEDTAVYYCAAAYRWQDVYRYWGQGTQVTVSS", "polyreactivity (PSR sort gate)": "low polyreactivity"},
      {"sequence": "QVQLQESGGGLVQAGGSLRLSCAASGTITVLYKMGWFRQAPGKEREFVASINYGTSTYYADSVKGRFTVSRDSAKNTVYLQMNCLKPEDTAVYYFAAAYRWQDVYRYWGQGTQVTVSS", "polyreactivity (PSR sort gate)": "low polyreactivity"},
      {"sequence": "QVQLQESGGGLVQAGGSLRLSCAASGYIFPRIYMGWYRQAPGKEREFDAGISYDAITNYADSVKGRFTISLDNAKNTVYLQMNSLKPEDTAVYYCAVSYYGTPLFTYWGQGTQVTVSS", "polyreactivity (PSR sort gate)": "high polyreactivity"},
      {"sequence": "QVQLQESGGGLVQAGGSLRLSCAASGYISHADEMGWYRQAPGKEHELVASISNGGSTNYADSVKGRFTISRDNAKNTLYLQMNSLKSEDTAVNYCAAWTGQVDIHYYWGHGTQVTVSS", "polyreactivity (PSR sort gate)": "low polyreactivity"},
      {"sequence": "QVQLQESGGGLVQAGGSLRLSCAASGYISIGRRMGWYRQAPGKERELVAGINGGGSTNYADSVKGRSTISRDNAKNTVYLQMNSLKPEDTAVYYCAAYVYDYDWYKYWGQGTQVTVSS", "polyreactivity (PSR sort gate)": "high polyreactivity"},
      {"sequence": "QVQLQESGGGLVQAGGSLRLSCASSGSIFWVWRMGWYCQAPGKEREFVAGIGLGATTNYADSVKGRFTISRDNAKNTVYLQMNSLKPGDTAVYYCATVGYYKGNQVLPAKDGDSWGQGTQVTVSS", "polyreactivity (PSR sort gate)": "high polyreactivity"},
      {"sequence": "QVQLQESGGGLVQAGGSLRLSCPSSGNISIKLQMGWYRQAPGKERELVATINLGAITYYADSVKGLITISRDNAKNTVYLQVNSLKPEDTAVYYCNAQSRTWRKLGYWGQGTQVTVSS", "polyreactivity (PSR sort gate)": "low polyreactivity"},
      {"sequence": "QVQLQESGGGLVQAGGSLRLSCSATGTIFTDRFMGWYRQAPGKERELVAGISPGTSTNYADSVKGRFTISRDNAKNTVYLQMNSLKPEDTAVYYCAADWSTGNTLPYWGQGTQVTVSS", "polyreactivity (PSR sort gate)": "high polyreactivity"},
      {"sequence": "QVQLQESGGGLVQAGGSLRLSSAASGTITVLYKMGWFRQPPGKQREFVASINYGTSTYYADSVKGRFTVSRDSAKKTVSLQMNSLKPEDTAVYYCAAAYRWQDVYRYWGQGTQVTVSS", "polyreactivity (PSR sort gate)": "low polyreactivity"},
      {"sequence": "QVQLQESGGGLVQAGGSLRLTCAASGSIFLNSEMGWYRQAPGKERELVAAIATGTSTNYADSVKGRFTISRDNAKNTVYLQMNSLKPEDTAVYYCATYHYWGQGTQVTVSS", "polyreactivity (PSR sort gate)": "low polyreactivity"},
      {"sequence": "QVQLQESGGGLVQAGGSLRMSCAASGKIFDADIMGWYRQAPGKERELVASNTDGRRTNYADSVKGRYTISRDSEKNTVYLQMNSLKAEDTAEYYCAAIAYPVVPTSFDYDSDYFHWGQGTQVTVSS", "polyreactivity (PSR sort gate)": "high polyreactivity"},
      {"sequence": "QVQLQESGGGLVQAGGSLRMSCAASGNIFDADIMGWYRQAPGKERELVASITDGRRTNYADSVKGRYTISRDSEKNTVYLQMNSLKPEDTAVYYCAAIAYPVVPTYFDYDSDYFHWGQGTQVTVSS", "polyreactivity (PSR sort gate)": "high polyreactivity"},
      {"sequence": "QVQLQESGGGLVQAGGSLRMSCAASGSIFSEANIGWYRQAPGKERELVATIGQGSTTNYADSVKGRFTISRDNAKNNVDLQLTSRKPEETAVYYCAVDTVDPVGFVYWGQGTQVTVRS", "polyreactivity (PSR sort gate)": "low polyreactivity"},
      {"sequence": "QVQLQESGGGLVQAGGSLRQSCAASGNIFLGDTMGWYRPAPGKEREFVAGIARGGNPYYADSVKGRFTISRNNAKNTVYLQKNSLKPEDTAVHYCAVQRSHASDYNYWGQGTQVTVSS", "polyreactivity (PSR sort gate)": "low polyreactivity"},
      {"sequence": "QVQLQESGGGLVQAGGSLRQSCAASGYIFPYYSMGSYRQAPGKERGLVACIAAGTTTNYADSVKGRFTISRDNAKKSVYLQMNSLKPEDAAVYYCAALNAFNTGHWYWGQGTQVTVSS", "polyreactivity (PSR sort gate)": "low polyreactivity"},
      {"sequence": "QVQLQESGGGLVQAGGSLRQSYAASGYIFPSLAMGWYRQAPGKEREFVAAIGRGSTNNYADSVKGRFTISRDNAKKTAYQQMNSLKPEDTAVYYCAAAASPLTRHLYWGQGTQVTVSS", "polyreactivity (PSR sort gate)": "low polyreactivity"},
      {"sequence": "QVQLQESGGGLVQAGGSLSCAASGNIFYIKYMGWYRQEPGKEREFVASIAHGTSTYYADSVKGLFTISRDNAKNTVYLQMNSLKPVDTAVYYCAAVTQSYYSYYYWGQGTQVTVSS", "polyreactivity (PSR sort gate)": "low polyreactivity"},
      {"sequence": "QVQLQESGGGLVQAGGSLSLSCAASGSNFVSVTMGWYRQAHGKERELVASIGRGSTTNHADSVKGRFTISRDNAKNIVYLLMNSLKPEDTAVYYCAALESYGKYHGYWGQGTQVTVSS", "polyreactivity (PSR sort gate)": "low polyreactivity"},
      {"sequence": "QVQLQESGGGLVQAGGSMRLSCAATGSISELRPMGWYSQAPGKERELVAGISTGGSTNYADSVKGRFTISRDNAKNTVFLQMNSLKPEDTAVYYCAAGSYGEGTYDYWGQGTQVTVRS", "polyreactivity (PSR sort gate)": "high polyreactivity"},
      {"sequence": "QVQLQESGGGLVQAGGSPRLSCAASDNIFPDSVMCWYRQAPGKERELVATIGFGATTNSADSVKGRFTISRDNAKNTVYLQMNSLKPEDTAVYSCAADPLNYEYFCYWGQGTQVTVSS", "polyreactivity (PSR sort gate)": "low polyreactivity"},
      {"sequence": "QVQLQESGGGLVQAGGSPRLSCAASDNIFPDSVRCWYRQAPGKERELVATIGFGATTNYADSVKGRFTISRDNAKNTVYLQMNSLKPEDTAVYYCAADPLNYEYFCYWGQGTQVTVSS", "polyreactivity (PSR sort gate)": "low polyreactivity"},
      {"sequence": "QVQLQESGGGLVQAGGSQRLSCAASGYIFYFQYMGWYRQAPGKELEFVAAISDGANTNYADSVKGRITISRDNAKNTEYLQMNSLKPEDTAVYYCAVYADENDYYIYWGQGTQVTVSS", "polyreactivity (PSR sort gate)": "low polyreactivity"},
      {"sequence": "QVQLQESGGGLVQAGGSQRLSCAASGYIIYFQYMGWYRQAPGKEREFVAAISDGANTNYADSVKGRFTISRDNAKNTEYLQMNSLKPEDTAVYYCAVYADENYYYIYWGQGTQVTVSS", "polyreactivity (PSR sort gate)": "low polyreactivity"},
      {"sequence": "QVQLQESGGGLVQASGSPRLSCAASGNIFDADIMGWYRQAPGKQCELVASITDGGSTNYADSEKGRFTISSDNAKNTVYLQKNSLKPEDTAVYYCAAISYRDIPTYFDYDSDYFYWGQGTHVTVSS", "polyreactivity (PSR sort gate)": "high polyreactivity"},
      {"sequence": "QVQLQESGGGLVQVGGSLRLSCAASGTIFNYGFLGRNRQAPGKERELVASINLGGITNYADSVKGRFTISRDNAKNTVYLQMISLKPEDTAVYYCAAYVVTGQNYGYWGQGTQVTVSS", "polyreactivity (PSR sort gate)": "low polyreactivity"},
      {"sequence": "QVQLQESGGGLVQVGGSQRLSCAASGNIFYNYAMVWYRNAQGKEREFDATIKNGTSINYADSVKGRFTISRDNAKNTVYLQMNSLTPEDTAVYYCAADLSWTDNLFYWGQGTQVTVSS", "polyreactivity (PSR sort gate)": "low polyreactivity"},
      {"sequence": "QVQLQESGGGMVLAGGSLRLSCSASGTISVYGTMGWYRQAPGKEREFVATIDPGTHTNYADSVKDRFTISRDNAKNTVYLKMNSLKPEVTAVYSCAVEAGSDWPYRYWGQGTQVTVSS", "polyreactivity (PSR sort gate)": "low polyreactivity"},
      {"sequence": "QVQLQESGGGMVQAGGSLRLSSAASGYISWADYMGWYRQAPGKERELVAGIGYGSTTYYADSVKGRFTISRDNAKNTAYLQMNSLKPEDTAVYYCAVGCYRDTAYKYWGQGTQVTVSS", "polyreactivity (PSR sort gate)": "low polyreactivity"},
      {"sequence": "QVQLQESGGGPVLAGGSLRLSCAASGTIFVRLDMGWYRQAPGKEREFVATIGSASSTYYADSVKGSFTISRDNVKNTVYLQMNSLKPEDTAVYYCAVSAAEQSRHYYWDQGTQVTVSS", "polyreactivity (PSR sort gate)": "low polyreactivity"},
      {"sequence": "QVQLQESGGGQVQAGGSLRLSCAASGTIFLYAFMAWYRQAPGKEPKLVAAIDVGTTTKYADSVKGRFTISRDNAKNTVYLQMNSLKPEDTAVYYCAAYLCYLDDLGYWGQGTQVTVSS", "polyreactivity (PSR sort gate)": "low polyreactivity"},
      {"sequence": "QVQLQESGGLVQAGCLRLSCAASGSVSYHEAMGWYRQAPGKERELVATISFGANTNYADSVKGRFTISRDNAKNTVYLQMNSLKPEDTAVYYCAAESLFDDYYGYWGQGTQVTVSS", "polyreactivity (PSR sort gate)": "low polyreactivity"}
    ]}
  ]
}
